The text below walks through data of paper PMC4678028, “Oligomerization of Baculovirus LEF-11 Is Involved in Viral DNA Replication” (PLoS ONE, 2015).

Positions count from the first letter of the chain named. Numbers in names are those of the source.

Data set [1] concerns the molecule itself. Nature of the data set: non-reducing SDS-PAGE with western blot; lysates of BmN-SWU1 cells transfected with pIZ-DsRed-LEF11 truncation or point mutant plasmids; loading buffer without β-mercaptoethanol; anti-DsRed blot. Background: A western blot detects proteins with antibodies after separation by electrophoresis.
Data set [2] concerns the target T1, BmNPV late expression factor 11 (LEF-11), cMYC- or FLAG-tagged (Bombyx mori nucleopolyhedrovirus (BmNPV)), O92404.
T1 chain: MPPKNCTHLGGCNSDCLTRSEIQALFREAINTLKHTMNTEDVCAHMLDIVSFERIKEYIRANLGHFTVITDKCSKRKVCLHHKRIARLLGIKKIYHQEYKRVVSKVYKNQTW
In words: non-reducing SDS-PAGE with western blot; lysate of BmN-SWU1 cells transfected with pIZ-LEF11^cMYC, 72 h.p.t.; loading buffer without β-mercaptoethanol; 12% SDS-PAGE; anti-cMYC blot. The following applies: remark: other sources report otherwise.

B1: DsRed-LEF11 (52–61) (domain or fragment)
chain: FERIKEYIRA
notes: LEF-11 of BmNPV, residues 52-61; source: BmN-SWU1 cells, transfected, in lysate; not shown: DsRed, N-terminal, kept
Consider B1, for which the “stoichiometry N” value in data set [1] stood at 2.

B2: DsRed-LEF11 (2–61) (domain or fragment)
chain: PPKNCTHLGGCNSDCLTRSEIQALFREAINTLKHTMNTEDVCAHMLDIVSFERIKEYIRA
notes: LEF-11 of BmNPV, residues 2-61; source: BmN-SWU1 cells, transfected, in lysate; not shown: DsRed, N-terminal, kept
Regarding B2, the “stoichiometry N” value in data set [1] is 2.

B3: DsRed-LEF11 (72–101) (domain or fragment)
chain: KCSKRKVCLHHKRIARLLGIKKIYHQEYKR
notes: source: BmN-SWU1 cells, transfected, in lysate; not shown: DsRed, N-terminal, kept
In the case of B3, the “stoichiometry N” value in data set [1] amounted to 2.

B4: DsRed-LEF11 (12–61) (domain or fragment)
chain: CNSDCLTRSEIQALFREAINTLKHTMNTEDVCAHMLDIVSFERIKEYIRA
notes: LEF-11 of BmNPV, residues 12-61; source: BmN-SWU1 cells, transfected, in lysate; not shown: DsRed, N-terminal, kept
For the molecule B4, the “stoichiometry N” value in data set [1] came out at 2.

B5: DsRed-LEF11 (42–61) (domain or fragment)
chain: VCAHMLDIVSFERIKEYIRA
notes: LEF-11 of BmNPV, residues 42-61; source: BmN-SWU1 cells, transfected, in lysate; not shown: DsRed, N-terminal, kept
As for B5, in data set [1], the “stoichiometry N” value was 2.

B6: DsRed-LEF11 (22–61) (domain or fragment)
chain: IQALFREAINTLKHTMNTEDVCAHMLDIVSFERIKEYIRA
notes: LEF-11 of BmNPV, residues 22-61; source: BmN-SWU1 cells, transfected, in lysate; not shown: DsRed, N-terminal, kept
In the case of B6, in data set [1], the “stoichiometry N” value was found to be 2.

B7: DsRed-LEF11 (72–112) (domain or fragment)
chain: KCSKRKVCLHHKRIARLLGIKKIYHQEYKRVVSKVYKNQTW
notes: LEF-11 of BmNPV, residues 72-112; source: BmN-SWU1 cells, transfected, in lysate; not shown: DsRed, N-terminal, kept
On to B7, for which, in data set [1], the “stoichiometry N” value stood at 2.

B8: DsRed-LEF11 (62–112) (domain or fragment)
chain: NLGHFTVITDKCSKRKVCLHHKRIARLLGIKKIYHQEYKRVVSKVYKNQTW
notes: LEF-11 of BmNPV, residues 62-112; source: BmN-SWU1 cells, transfected, in lysate; not shown: DsRed, N-terminal, kept
Take B8: the “stoichiometry N” value in data set [1] came to 2.

B9: DsRed-LEF11 (2–51) (domain or fragment)
chain: PPKNCTHLGGCNSDCLTRSEIQALFREAINTLKHTMNTEDVCAHMLDIVS
notes: LEF-11 of BmNPV, residues 2-51; source: BmN-SWU1 cells, transfected, in lysate; not shown: DsRed, N-terminal, kept
As for B9, the “stoichiometry N” value in data set [1] is 2.

B10: BmNPV late expression factor 11 (LEF-11), cMYC- or FLAG-tagged, O92404 1-112 (natural protein)
chain: T1 chain
As to B10, in data set [2], the stoichiometry N was 4.

B11: pIZ-DsRed-LEF11-I85E (natural protein)
chain: T1 chain with I85E
notes: LEF-11 of BmNPV with I85E; Probably the whole LEF-11 as in pIZ-DsRed-LEF11; source: BmN-SWU1 cells, transfected, in lysate; not shown: DsRed, N-terminal, kept
As to B11, the “stoichiometry N” value in data set [1] came out at 2.

B12: pIZ-DsRed-LEF11-Y58E&I59E (natural protein)
chain: T1 chain with Y58E, I59E
notes: LEF-11 of BmNPV with Y58E and I59E; Probably the whole LEF-11 as in pIZ-DsRed-LEF11; also called YE58&I59E; source: BmN-SWU1 cells, transfected, in lysate; not shown: DsRed, N-terminal, kept
As to B12, the “stoichiometry N” value in data set [1] was 2.

B13: pIZ-DsRed-LEF11-L88E&L89E (natural protein)
chain: T1 chain with L88E, L89E
notes: LEF-11 of BmNPV with L88E and L89E; Probably the whole LEF-11 as in pIZ-DsRed-LEF11; source: BmN-SWU1 cells, transfected, in lysate; not shown: DsRed, N-terminal, kept
On to B13, for which the “stoichiometry N” value in data set [1] is 2.

B14: pIZ-DsRed-LEF11-I55E (natural protein)
chain: T1 chain with I55E
notes: LEF-11 of BmNPV with I55E; Probably the whole LEF-11 as in pIZ-DsRed-LEF11; source: BmN-SWU1 cells, transfected, in lysate; not shown: DsRed, N-terminal, kept
For the molecule B14, the “stoichiometry N” value in data set [1] was found to be 2.

B15: DsRed-LEF11 (32–61) (domain or fragment)
chain: TLKHTMNTEDVCAHMLDIVSFERIKEYIRA
notes: LEF-11 of BmNPV, residues 32-61; source: BmN-SWU1 cells, transfected, in lysate; not shown: DsRed, N-terminal, kept
In the case of B15, the “stoichiometry N” value in data set [1] was found to be 2.

A word on the stoichiometry N: it is the number of molecules, sites or subunits per partner or assembly.
